Test results published in paper PMC3135172.

Target: GST-tagged BPTF PHD-bromodomain (human)
Assay: pull-down

fold enhancement of binding over mononucleosomes with only H3K4me3: 2 to 3 fold
Substance: H4K16ac and H3K4me3 modified mononucleosome (from UniProt P62805 1-103) (complex)
